How the values were obtained:
Conditions in all cases: tags: GST (pGEX4T-1); label: 32P 5' end (EMSA); annealed oligos with 3-nt overhangs, ligated as 4mer
ABP4 [1] = target: T1, ABP4 (Zea mays); assay: EMSA; 25 mM HEPES-KOH pH 7.6, 50 mM KCl, 10% glycerol, DTT, on ice
T1 chain: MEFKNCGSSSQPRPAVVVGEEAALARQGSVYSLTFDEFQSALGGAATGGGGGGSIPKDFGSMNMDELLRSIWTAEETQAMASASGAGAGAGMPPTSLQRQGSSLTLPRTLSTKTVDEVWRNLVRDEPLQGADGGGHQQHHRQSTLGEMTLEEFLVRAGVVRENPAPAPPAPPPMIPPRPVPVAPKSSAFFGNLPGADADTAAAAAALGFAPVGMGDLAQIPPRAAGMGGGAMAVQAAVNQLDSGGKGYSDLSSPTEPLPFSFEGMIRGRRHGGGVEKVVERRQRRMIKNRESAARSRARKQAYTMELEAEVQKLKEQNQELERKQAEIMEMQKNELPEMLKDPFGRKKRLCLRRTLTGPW
Description: (§1) Add 4 μl of 5×binding buffer (125 mM HEPES-KOH pH7.6, 50% glycerol, 250 mM KC1). Add 4 μg (9 μl) of each of the proteins ABP2, ABP4, ABP9 and GST. Add 1 μl of 1M DTT, 1 μl of probe of the above-labeled ABRE (or InABRE) and 4 μl of H₂O. Incubate on ice for 30 minutes. Add 3 μl of sample buffer (0.025% bromophenol blue in sterile H₂O) and perform polyacrylamide gel eletrophoresis analysis.
(§2) Set up the gel mixture of 9 ml of 30% acrylamide, 5 ml of 10×eletrophoresis buffer (142.7 g/L glycin, 3.92 g/L EDTA, 30.28 g/L Tris), 2.5 ml of 50% glycerol, 33 ml of deionized water, 400 μl of 10% APS, and 25 μl of TEMED. After completion of polymerization, perfom gel eletrophoresis with 1×eletrophoresis buffer, including pre-running for 10 minutes (300V), loading the samples and eletrophoresis for 1 hour (300V). Stick the gel with filter paper to peel off. Seal the peeled gel with Saran wrap and expose to X ray film for 1 hour. Wash the film, develop for 2 minutes and fix for 5 minutes. […] This means that the products of the genes ABP2, ABP4, and ABP9 also have the ABRE binding specificity in vitro.

ABP2 [2] = target: T2, ABP2 (Zea mays); assay: as above
T2 chain: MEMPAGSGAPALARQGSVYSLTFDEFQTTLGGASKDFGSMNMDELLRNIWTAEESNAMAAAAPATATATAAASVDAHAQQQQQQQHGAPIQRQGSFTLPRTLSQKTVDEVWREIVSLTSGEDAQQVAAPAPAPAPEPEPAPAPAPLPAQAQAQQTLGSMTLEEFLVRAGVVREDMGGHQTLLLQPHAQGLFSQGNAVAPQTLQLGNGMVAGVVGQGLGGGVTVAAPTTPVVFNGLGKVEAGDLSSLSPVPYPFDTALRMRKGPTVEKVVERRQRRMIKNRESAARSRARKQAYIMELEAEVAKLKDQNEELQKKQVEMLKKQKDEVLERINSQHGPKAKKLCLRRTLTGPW
Description: as §1, §2

ABP9 [3] = target: T3, ABP9 (Zea mays); assay: as above
T3 chain: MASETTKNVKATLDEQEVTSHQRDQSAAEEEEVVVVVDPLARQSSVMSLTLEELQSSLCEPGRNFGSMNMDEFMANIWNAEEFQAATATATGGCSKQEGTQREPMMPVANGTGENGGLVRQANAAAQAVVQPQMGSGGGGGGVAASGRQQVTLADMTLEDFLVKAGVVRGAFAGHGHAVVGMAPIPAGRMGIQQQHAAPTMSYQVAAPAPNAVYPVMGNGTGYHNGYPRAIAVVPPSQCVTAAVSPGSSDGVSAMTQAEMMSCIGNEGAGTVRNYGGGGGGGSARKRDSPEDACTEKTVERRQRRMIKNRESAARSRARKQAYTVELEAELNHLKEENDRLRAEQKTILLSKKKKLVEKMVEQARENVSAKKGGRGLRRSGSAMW
Description: as §1, §2

ABP4 [4] = target: T1, ABP4; assay: EMSA; no retarded band
Description: as §1, §2

ABP2 [5] = target: T2, ABP2; assay: EMSA; no retarded band
Description: as §1, §2

ABP9 [6] = target: T3, ABP9; assay: EMSA; no retarded band
Description: as §1, §2

B1: ABRE (dsDNA)
DNA 1: GAAGTCCACGTGGAGGTGG
DNA 2: TCCCACCTCCACGTGGACT
binding result (ABP4 [1]): binds | binding result (ABP2 [2]): binds | binding result (ABP9 [3]): binds

B2: mABRE (dsDNA)
DNA 1: GAAGTAACATGTTCGGTGG
DNA 2: TCCCACCGAACATGTTACT
binding result (ABP4 [4]): no binding | binding result (ABP2 [5]): no binding | binding result (ABP9 [6]): no binding

Reference: US20060021091, “Maize bZIP transcription factors and genes encoding the same and use thereof” (published 2006)
